Where two headings read alike, the source gives them in different places. Blank lines part the entries; values can stand above or below the binder they belong to.
Legend:
Human-NKP30-His [1] = target: T1, Human-NKP30-His (human, UniProt O14931 19-135); experiment: ELISA, Human-NKP30-His coated at 0.5 ug/mL, HRP goat anti-human IgG-Fc
T1 construct: also called NKP30 protein; not shown: His tag
T1 sequence (looked up): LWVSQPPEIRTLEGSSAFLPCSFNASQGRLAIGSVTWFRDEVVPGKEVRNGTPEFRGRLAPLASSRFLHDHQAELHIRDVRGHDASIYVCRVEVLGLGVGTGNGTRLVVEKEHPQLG
Procedure: (§1) Human-NKP30-His was diluted to 0.5 μg/mL with PBS buffer at pH 7.4, added into the 96-well ELISA plate at 100 μL per well, coated overnight at 4° C., and blocked with 1% BSA blocking solution for 1 hour. The plate was washed 3 times with PBST, and the constructed antibodies were diluted to 10 μg/mL with 0.5% BSA sample diluent as the starting concentration, and then diluted by 3-fold gradient (11 gradients in total). A negative control (blank well and IgG1 isotype control) and a positive control were set, and the positive control was a NKP30 humanized antibody (sequence shown in SEQ ID No.32), and incubated at 37° C. for 1 h at 100 μL per well. […] The absorbance value of each well in the 96-well plate was determined by selecting the wavelength of 450 nm and the reference wavelength of 570 nm on a multifunctional enzyme marker, and the absorbance value (OD)=OD₄₅₀ₙₘ−OD₅₇₀ₙₘ. The logarithm of the concentration of the constructed antibodies were taken as the abscissa, and the measured absorbance value of each well was taken as the ordinate, and the Sigmoidaldose-response (Variable Slope) method (GraphPad Prism software, GraphPad Software, San Diego, California) was selected for nonlinear regression to obtain the binding curve of the target antibody to NKP30 protein.

Human-NKP30-His [2] = target: T1, Human-NKP30-His; experiment: as above; remark: listed apart in the source
Procedure: as §1

Human-NKP30-His [3] = target: T1, Human-NKP30-His; experiment: as above; remark: listed apart in the source
Procedure: as §1

Human-NKP30-His [4] = target: T1, Human-NKP30-His; experiment: as above; remark: listed apart in the source
Procedure: as §1

TGFβ1 [5] = target: T2, TGFβ1 (UniProt P01137 279-390, limits assumed); experiment: ELISA, TGFb1 coated at 1 ug/mL, HRP goat anti-human IgG-Fc
T2 construct: also called TGFβ1 protein
Procedure: (§2) TGFβ1 was diluted to 1 μg/mL with PBS buffer at pH 7.4, added into the 96-well ELISA plate at 100 μL per well, coated overnight at 4° C., and blocked with 1% BSA blocking solution for 1 hour. The plate was washed 3 times with PBST, and the constructed expressing antibodies were diluted to 20 µg/mL with 0.5% BSA sample diluent as the starting concentration, and then diluted by 3-fold gradient (11 gradients in total). A negative control (blank well and IgG1 isotype control) and a positive control were set, and the positive control was TGF-βR2 (Acro, Cat: TG2-H5252), and incubated at 37° C. for 1 h at 100 μL per well. The plate was washed 3 times with PBST, and then HRP-labelled goat anti-human IgG-Fc was diluted with the sample diluent at 1:10000. […] The absorbance value of each well in the 96-well plate was determined by selecting the wavelength of 450 nm and the reference wavelength of 570 nm on a multifunctional enzyme marker, and the absorbance value (OD)=OD₄₅₀ₙₘ−OD₅₇₀ₙₘ. The logarithm of the concentration of the constructed antibodies were taken as the abscissa, and the measured absorbance value of each well was taken as the ordinate, and the Sigmoidaldose-response (Variable Slope) method (GraphPad Prism software, GraphPad Software, San Diego, California) was selected for nonlinear regression to obtain the binding curve of the target antibodies to the TGFβ1 protein.

TGFβ1 [6] = target: T2, TGFβ1; experiment: as above; remark: listed apart in the source
Procedure: as §2

TGFβ1 [7] = target: T2, TGFβ1; experiment: as above; remark: listed apart in the source
Procedure: as §2

Human-CD24-His [8] = target: T3, Human-CD24-His (human, UniProt P25063 27-59); experiment: ELISA, Human-CD24-His coated at 1 ug/mL, HRP goat anti-human IgG-Fc
T3 construct: also called CD24 protein; not shown: His tag
T3 chain (looked up): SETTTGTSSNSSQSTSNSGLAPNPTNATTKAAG
Procedure: (§3) Human-CD24-His was diluted to 1 μg/mL with PBS buffer at pH 7.4, added into the 96-well ELISA plate at 100 μL per well, coated overnight at 4° C., and blocked with 1% BSA blocking solution for 1 hour. The plate was washed 3 times with PBST, and the constructed antibodies were diluted to 20 μg/mL with 0.5% BSA sample diluent as the starting concentration, and then diluted by 3-fold gradient (11 gradients in total) and incubated at 37° C. for 1 h at 100 μL per well. The plate was washed 3 times with PBST, and then HRP-labelled goat anti-human IgG-Fc (jackson Cat: 109-035-098) was diluted with the sample diluent at 1:10000. 100 μL was added into each well, and incubated at room temperature for 1 hour. […] The absorbance value of each well in the 96-well plate was determined by selecting the wavelength of 450 nm and the reference wavelength of 570 nm on a multifunctional enzyme marker, and the absorbance value (OD)=OD₄₅₀ₙₘ−OD₅₇₀ₙₘ. The logarithm of the concentration of the constructed antibodies were taken as the abscissa, and the measured absorbance value of each well was taken as the ordinate, and the Sigmoidaldose-response (Variable Slope) method (GraphPad Prism software, GraphPad Software, San Diego, California) was selected for nonlinear regression to obtain the binding curve of the target antibodies to the CD24 protein.

Human-CD24-His [9] = target: T3, Human-CD24-His; experiment: as above
Procedure: as §3

T2 sequence (P01137 279-390 limits assumed): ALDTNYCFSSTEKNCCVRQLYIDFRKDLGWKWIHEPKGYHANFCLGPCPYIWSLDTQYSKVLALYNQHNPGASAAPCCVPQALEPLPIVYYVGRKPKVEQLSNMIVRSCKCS

EC50 (read off the curve) (Human-NKP30-His [1]): ~0.03 µg/mL | EC50 (read off the curve) (Human-NKP30-His [2]): ~0.02 µg/mL | EC50 (read off the curve) (Human-NKP30-His [3]): ~0.03 µg/mL | EC50 (read off the curve) (Human-NKP30-His [4]): ~0.03 µg/mL
B1: NKP30 humanized antibody (antibody, V domains shown)
VH: EVQLVESGGGLVQPGGSLRLSCAASGITFSRSVMGWFRQAPGKLRELVAGITSDDNTDYADSVKGRFTISRDNSKNTLYLQMNSLRAEDTAVYYCNILPDSRLGWGQGTLVTVSS
notes: It was detected with anti-human IgG-Fc

EC50 (read off the curve) (TGFβ1 [5]): ~0.03 µg/mL | EC50 (read off the curve) (TGFβ1 [6]): ~0.03 µg/mL | EC50 (read off the curve) (TGFβ1 [7]): ~0.04 µg/mL
B2: TGF-βR2 (Acro, Cat: TG2-H5252) (receptor, UniProt P37173 23-159, looked up)
chain: TIPPHVQKSVNNDMIVTDNNGAVKFPQLCKFCDVRFSTCDNQKSCMSNCSITSICEKPQEVCVAVWRKNDENITLETVCHDPKLPYHDFILEDAASPKCIMKEKKKPGETFFMCSCSSDECNDNIIFSEEYNTSNPD
notes: Bought reagent

EC50 (read off the curve) (Human-CD24-His [8]): ~0.01 µg/mL | EC50 (read off the curve) (Human-CD24-His [9]): ~0.006 µg/mL
B3: Positive control (antibody, human IgG1, kappa, V domains shown)
VH: QVQLVQSGSELKKPGASVKVSCKASGYIFTDYAIHWVRQAPGQGLEWMGFINTATGEPTYADDFKGRFVFSLDTSVSTAYLQISSLKAEDTAVYFCTSGVHWGQGTLVTVSS
VL: DIQMTQSPSTLSASVGDRVTITCSASSSVSSMHWYQQKPGKAPKLLIYSTSNLASGVPSRFSGSGSGTEYTLTISSLQPDDFATYYCHHWTSYMYTFGGGTKVEIKR
notes: The sheet only prints 'Positive control'; also called CD24 monoclonal antibody

Reference: patent US20240336682A1 (SHENGHE CHINA BIOPHARMACEUTICAL, published 2024)
